Measurements reported in US12365710B2, “HMGB1 protein derivatives for the removal of biofilms” (RESEARCH INSTITUTE AT NATIONWIDE CHILDREN'S HOSPITAL, priority 2018, dated 2025).

B1: B-linker Box: HMGB1 B Box with N- and C-terminal linker (80-179; 80 to 176 in b258), 97 amino acid (protein, UniProt P09429 80-179, looked up, fragment)
chain: PPKGETKKKFKDPNAPKRPPSAFFLFCSEYRPKIKGEHPGLSIGDVAKKLGEMWNNTAADDKQPYEKKAAKLKEKYEKDIAAYRAKGKPDAAKKGVVKAE
B2: mHMGB1: engineered C45S variant of full length rHMGB1 that mimics the reduced form of HMGB1 (protein, UniProt P09429 1-215, looked up, variant C45S)
chain: MGKGDPKKPRGKMSSYAFFVQTCREEHKKKHPDASVNFSEFSKKSSERWKTMSAKEKGKFEDMAKADKARYEREMKTYIPPKGETKKKFKDPNAPKRPPSAFFLFCSEYRPKIKGEHPGLSIGDVAKKLGEMWNNTAADDKQPYEKKAAKLKEKYEKDIAAYRAKGKPDAAKKGVVKAEKSKKKKEEEEDEEDEEDEEEEEDEEDEDEEEDDDDE
modifications: full-length
notes: engineered C45S variant of full length rHMGB1 that mimics the reduced form of HMGB1

Test system: Klebsiella pneumoniae biofilms
Test: in vitro disruption of pre-formed biofilms, LIVE/DEAD, CLSM and COMSTAT
Assay type: cell-based
Details: for disruption of established K. pneumoniae biofilms (average thickness, biomass): 200 nM added at 24 h, 16 h incubation; for % reduction in average thickness (AT), mean±SE / % reduction in biomass (BM), mean±SE: 200 nM added to pre-formed biofilms at 24 h, read at 40 h, vs untreated KP biofilms
Experimental: FIGS. 5A-5E: Anti-biofilm effect of HMGB1 variants on high priority bacterial pathogens. Indicated HMGB1 variants or antibodies against DNABII proteins (α-1HFEc 1gG, 1 μM) were added at 24 h to the respective preformed bacterial biofilms, in vitro. After 16 h of Incubation, biofilms were stained with LIVE/DEAD®, then visualized via confocal laser scanning microscopy. Images were analyzed by COMSTAT to calculate average thickness and comparison to control was plotted. (FIG. 5A) Full-length HMGB1 isoforms (200 nM unless otherwise indicated) added to UPEC, B. cenocepacia, NTHI, or ESKAPE pathogens. 800 nM rHMGB1 and 200 nM mHMGB1 were added for S. aureus (ESKAPE). 800 nM rHMGB1, 800 nM mHMGB1, or 3.3 μM of α-1HFEc 1gG were added for E. faecium (ESKAPE) and were incubated for 1 h as opposed to 16 h to avoid potential degradation by E. faecium proteases. (FIG. 5B) Representative images of UPEC biofilms incubated with increasing concentrations of rHMGB1. (FIG. 5C) Individual domains of HMGB1 (200 nM) were tested for anti-biofilm activity as above (dotted line indicates control values). Bars represent the SEM. Statistical significance compared to control was assessed with unpaired t-tests, *P<0.05. […] (FIGS. 5D-5E) HMGB1 and variants disrupt preformed Klebsiella pneumoniae biofilms. rHMGB1, HMGB1 C45S (mHMGB1), bovine HMGB1 (bHMGB1), B box, B Box C106S (mB Box), A Box, and A+B Box were added (200 nM) at 24 h to preformed K. pneumoniae biofilms. After 16 h of incubation, biofilms were stained with LIVE/DEAD®, then visualized via confocal laser scanning microscopy. Images were analyzed by COMSTAT to calculate average thickness and total biomass. Error bars represent the SEM. ***P<0.0001; ns=not significant.
An in vitro biofilm assay was used to test the effect of HMGB1 and its variants on established bacterial biofilms. Applicant expressed, (in E. coli) and purified >95% human recombinant full length HMGB1 (rHMGB1; 1-215), a C45S mutated variant (mHMGB1) and the HMGB1 domains A Box (1-89), A+B Boxes (1-176), B Box (80-179), and B Box C106S (mB Box) (FIG. 3). […] To evaluate the effect of HMGB1 and its variants as well as a commercially available native bovine HMGB1 (used as a control) on established bacterial biofilms, each protein was added (at 200 nM), to pre-formed Klebsiella pneumoniae biofilms after 24 h of growth. After a 16 h incubation (40 h total biofilm growth), the biofilms were stained with LIVE/DEAD® and analyzed using confocal laser scanning microscopy (CLSM) and COMSTAT analysis to calculate the average thickness and total biomass of the biofilms. […] The results of this study lead to a noteworthy observation that a single dose of these non-antimicrobial compounds was able to disrupt recalcitrant biofilms. In addition, the HMGB1 variants have disrupted every bacterial species tested to date, which includes Uropathogenic E. coli, Burkholderia cenocepacia, Nontypeable Haemophilus influenzae (FIG. 6). A single dose at this concentration released of bacteria from their protective shield makes them vulnerable to clearance by antibiotics and the immune system.
Klebsiella pneumoniae (KP), a common cause of nosocomial infections was used for all BBs disruption assays. Human recombinant full length HMGB1 (rHMGB1; 1-215), a C45S mutation variant (mHMGB1) and the HMGB1 domains A Box (1-89), B Box (90-176), AB Boxes (1-176), B-linker Box (80-179), and B-linker Box C106S were expressed (in E. coli) and purified to >95%. To evaluate the effect of rHMGB1 and the various domains on established BBs, each protein species (200 nM) was added to pre-formed BBs at 24 h. At 40 h the BBs were washed, stained with LIVE/DEAD®, visualized via confocal laser scanning microscopy and images were analyzed by COMSTAT to calculate average thickness and biomass.

| Molecule | disruption of established K. pneumoniae biofilms (average thickness, biomass) | % reduction in average thickness (AT), mean±SE | % reduction in biomass (BM), mean±SE |
| --- | --- | --- | --- |
| rHMGB1: tagless human recombinant full length HMGB1 (1-215) expressed in E. coli | significantly disrupt | 44%±0.33 | 61%±0.01 |
| B1 | retained full anti-biofilm activity | 77%±0.03 | 67%±0.01 |
| B2 |  | 75%±0.04 | 80%±0.01 |
